The values below come from PMC2582609.

Assay [1] addresses NIPBL R1856G (CdLS missense mutation) GAL4-DNA-binding domain fusion (human) (UniProt Q6KC79). Kind of assay: two-hybrid.
In assay [2] the target is NIPBL R1895T (CdLS missense mutation) GAL4-DNA-binding domain fusion (human) (UniProt Q6KC79). Kind of assay: two-hybrid.

For “full-length HDAC3 fused to the GAL4-activating domain (from UniProt O15379 1-428) (enzyme)”, the β-galactosidase activity compared to the wild-type construct in assay [1] and in assay [2] was 50% throughout.
